Patent US20140322196A1
Several values for one entry are separate records, joined by “and”; a condition that tells them apart may be missing. Identical values can stand only once.

Key:
[1] = target: Hemagglutinin (HA) of Influenza A virus A/Parma/5/06 (Wisconsin-like) H3N2 (Influenza A virus A/Parma/05/06 H3N2); test: cell-based or functional assay
[2] = target: Hemagglutinin (HA) of Influenza A virus A/Puerto Rico/8/34 H1N1 (PR8 virus) (Influenza A virus A/Puerto Rico/8/34 H1N1) (UniProt P03452); test: cell-based or functional assay
[3] = target: Hemagglutinin (HA) of Influenza A virus A/Roma-ISS/2/08 (Brisbane-like) (oseltamivir-sensitive) H1N1 (Influenza A virus A/RomaISS/2/08 H1N1); test: cell-based or functional assay
[4] = target: Hemagglutinin (HA) of Influenza A virus A/Turkey/Italy/2676/99 H7N1 (Influenza A virus A/Turkey/Italy/2676/99 H7N1); test: cell-based or functional assay
[5] = target: Hemagglutinin (HA) of Influenza A virus A/Roma-ISS/2/08 (Brisbane-like) (oseltamivir-sensitive) H1N1 (Influenza A virus A/RomaISS/2/08 H1N1)

Substance: … (SEQ ID NO: 1), bLf C-lobe peptide 418-429
- HI titre [1]: 0.7 pM
- HI titre [2]: 0.7 nM
- HI titre [3]: 1.4 pM
- HI titre [4]: 18 fM

Substance: Lactoferrin from bovine milk (bLf) (from UniProt P24627 20-708)
- percentage of virus binding to bLf [5]: 52.9% and 34.1% and 47.2%
- HI titre [1]: 3000 pM
- HI titre [2]: 3 nM
- HI titre [3]: 6000 pM
- HI titre [4]: 93.1 fM

Substance: … (SEQ ID NO: 2), bLf C-lobe peptide 506-522
- HI titre [1]: 0.7 pM
- HI titre [2]: 0.35 nM
- HI titre [3]: 1.4 pM
- HI titre [4]: 46.5 fM
